# Test results taken from PMC9504884, “Functional Interactions of Kluyveromyces lactis Telomerase Reverse Transcriptase with the Three-Way Junction and the Template Domains of Telomerase RNA”.
# T1: klTRBD klEst2 171-422 (Kluyveromyces lactis, UniProt Q6CSS0 171-422)
# T1 sequence: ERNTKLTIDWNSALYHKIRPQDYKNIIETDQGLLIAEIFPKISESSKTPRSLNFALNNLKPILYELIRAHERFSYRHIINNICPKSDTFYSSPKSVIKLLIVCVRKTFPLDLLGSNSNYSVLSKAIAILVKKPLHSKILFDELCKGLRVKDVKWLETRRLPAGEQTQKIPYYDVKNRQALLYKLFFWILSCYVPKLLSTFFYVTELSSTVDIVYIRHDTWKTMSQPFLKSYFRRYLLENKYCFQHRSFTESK
# T2: klEst2 full-length (TERT) (Kluyveromyces lactis, UniProt Q6CSS0 1-861)
# T2 sequence: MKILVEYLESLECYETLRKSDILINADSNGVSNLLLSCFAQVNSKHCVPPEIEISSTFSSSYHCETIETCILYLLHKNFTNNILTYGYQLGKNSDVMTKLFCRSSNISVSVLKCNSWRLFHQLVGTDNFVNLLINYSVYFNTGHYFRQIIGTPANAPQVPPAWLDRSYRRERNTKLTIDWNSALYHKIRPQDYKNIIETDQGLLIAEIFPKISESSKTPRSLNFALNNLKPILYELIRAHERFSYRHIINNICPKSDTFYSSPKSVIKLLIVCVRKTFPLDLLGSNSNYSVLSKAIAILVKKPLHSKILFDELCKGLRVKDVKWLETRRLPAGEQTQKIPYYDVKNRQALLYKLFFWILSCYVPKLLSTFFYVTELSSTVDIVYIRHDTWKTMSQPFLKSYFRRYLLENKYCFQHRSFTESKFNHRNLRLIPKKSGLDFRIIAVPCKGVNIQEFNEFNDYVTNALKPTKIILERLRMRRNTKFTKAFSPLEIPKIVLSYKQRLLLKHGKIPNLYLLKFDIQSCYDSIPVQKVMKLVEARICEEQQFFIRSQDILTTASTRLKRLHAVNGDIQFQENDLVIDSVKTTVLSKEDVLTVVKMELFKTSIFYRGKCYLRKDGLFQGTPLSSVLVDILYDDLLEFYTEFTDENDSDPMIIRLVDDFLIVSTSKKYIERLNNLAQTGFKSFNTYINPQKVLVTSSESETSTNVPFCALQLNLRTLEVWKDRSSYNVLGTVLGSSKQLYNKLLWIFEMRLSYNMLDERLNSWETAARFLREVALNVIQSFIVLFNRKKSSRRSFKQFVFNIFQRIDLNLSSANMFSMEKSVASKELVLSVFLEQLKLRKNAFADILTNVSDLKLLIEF
# T3: klTRBD klEst2 171-404 (Kluyveromyces lactis, UniProt Q6CSS0 171-404)
# T3 sequence: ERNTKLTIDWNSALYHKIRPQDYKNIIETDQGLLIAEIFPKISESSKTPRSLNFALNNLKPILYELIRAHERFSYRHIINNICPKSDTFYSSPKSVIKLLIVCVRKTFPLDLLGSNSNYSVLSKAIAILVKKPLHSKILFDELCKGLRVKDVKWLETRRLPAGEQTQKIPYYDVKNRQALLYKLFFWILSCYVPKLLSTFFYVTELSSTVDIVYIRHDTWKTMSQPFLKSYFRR
# B1: T + TBE (structured_RNA)
# RNA: GGUAAGGACCAGUGCCACGAAAGUGGUACUUCAAAUCCGUACACCACAUACCUAAUCAAAACCG
# What was measured:
# Assay in all cases: EMSA; 1 nM RNA, tRNA competitor; 25 mM Tris-HCl pH 7.5, 50 mM KCl, 1 mM MgCl2, 1 mM DTT, 10% glycerol, 0.1% Triton, 0.5 mg/mL BSA, 1.7 ng/uL yeast tRNA, 1 nM RNA probe; 15 min on ice then 10 min room temperature; gel at 6 C
# klTRBD klEst2 171-422 = biological target: T1, klTRBD klEst2 171-422; details: protein: recombinant; tags: N-terminal His-SUMO, TEV-cleaved; label: 5'-32P when probe; hairpin (TBE) with template
# [1] = biological target: T2, klEst2 full-length (TERT); details: protein: recombinant; tags: expressed in E. coli; His-SUMO tag described for the TRBD constructs, tag of full-length not clearly stated; label: 5'-32P when probe; hairpin (TBE) with template
# klTRBD klEst2 171-404 = biological target: T3, klTRBD klEst2 171-404; details: protein: recombinant; tags: N-terminal His-SUMO, TEV-cleaved; label: 5'-32P when probe; hairpin (TBE) with template
binder,measurement,setting,value
B1,binding result,klTRBD klEst2 171-422,no binding
same,binding result,[1],binds
same,binding result,klTRBD klEst2 171-404,no binding
